Biological target: Pol II stalk (RPB4-RPB7), S. scrofa (S. scrofa)
Assay: cryo-EM structure; PEC-RNGTT: phosphorylated Pol II, DNA-RNA scaffold with 17 nt 5′-triphosphate RNA, DSIF, RNGTT, 100 μM GMPPNP, NELF added stepwise; purified and crosslinked by GraFix; NELF seen in an Up and a Down state
Settings: both partners purified

B1: RNA guanylyltransferase and 5′-phosphatase (RNGTT) (enzyme)
chain: not shown
notes: human RNGTT, full-length gene; TPase domain, linker, GTase domain with OB fold; Released from the IgG resin by on-column digestion; also called capping enzyme; CE; source: Expi293F, transfected, purified (IgG resin, on-column digestion, Mono Q); not shown: 4 × ProteinA, N-terminal, cleaved
**Q.** Does B1 bind?
**A.** binds

Reference: PMC11139899, “Structures of co-transcriptional RNA capping enzymes on paused transcription complex” (Nature Communications, 2024)
